Assay results reported in PMC4591933 (Cancer research, 2008).

Biological target: EGFR-NLuc (human EGF receptor fused to the N-terminal fragment of firefly luciferase) (human, UniProt P00533 25-1210)
Test: split reporter

B1: Shc-CLuc (human p52Shc fused to the C-terminal fragment of firefly luciferase) (natural protein, UniProt P29353-2 1-473, looked up)
chain: MNKLSGGGGRRTRVEGGQLGGEEWTRHGSFVNKPTRGWLHPNDKVMGPGVSYLVRYMGCVEVLQSMRALDFNTRTQVTREAISLVCEAVPGAKGATRRRKPCSRPLSSILGRSNLKFAGMPITLTVSTSSLNLMAADCKQIIANHHMQSISFASGGDPDTAEYVAYVAKDPVNQRACHILECPEGLAQDVISTIGQAFELRFKQYLRNPPKLVTPHDRMAGFDGSAWDEEEEEPPDHQYYNDFPGKEPPLGGVVDMRLREGAAPGAARPTAPNAQTPSHLGATLPVGQPVGGDPEVRKQMPPPPPCPGRELFDDPSYVNVQNLDKARQAVGGAGPPNPAINGSAPRDLFDMKPFEDALRVPPPPQSVSMAEQLRGEPWFHGKLSRREAEALLQLNGDFLVRESTTTPGQYVLTGLQSGQPKHLLLVDPEGVVRTKDHRFESVSHLISYHMDNHLPIISAGSELCLQQPVERKL
**Q.** How did the “fold induction of reconstituted luciferase over control, 15 min after EGF” value turn out when B1 was run?
**A.** 2.5 fold over control
